From patent EP2717941B1 (TLA Targeted Immunotherapies AB, dated 2020)
Blank lines part the entries; values can stand above or below the binder they belong to. Groups on a side chain read outwards from the residue. *: point of attachment. Biotin = O=C1N[C@H]2[C@H](CS[C@H]2CCCCC(=O)*)N1; PEG = not defined here

Experiments:
Assay in all cases: cell-based or functional assay
[1] = target: T1, hCXCR3 (human, UniProt P49682 1-368)
T1 sequence (looked up): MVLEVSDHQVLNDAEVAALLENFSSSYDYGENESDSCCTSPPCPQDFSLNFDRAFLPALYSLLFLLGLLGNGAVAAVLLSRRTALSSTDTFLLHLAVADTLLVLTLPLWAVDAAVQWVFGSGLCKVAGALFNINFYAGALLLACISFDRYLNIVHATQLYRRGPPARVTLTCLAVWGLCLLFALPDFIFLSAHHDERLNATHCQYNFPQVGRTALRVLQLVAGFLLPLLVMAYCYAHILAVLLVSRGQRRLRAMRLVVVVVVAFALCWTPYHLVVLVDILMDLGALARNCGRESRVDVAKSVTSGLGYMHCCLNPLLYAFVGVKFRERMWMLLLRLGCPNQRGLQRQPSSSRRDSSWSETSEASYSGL

[2] = target: T2, hCCR10 (human, UniProt P46092 1-362)
T2 sequence (looked up): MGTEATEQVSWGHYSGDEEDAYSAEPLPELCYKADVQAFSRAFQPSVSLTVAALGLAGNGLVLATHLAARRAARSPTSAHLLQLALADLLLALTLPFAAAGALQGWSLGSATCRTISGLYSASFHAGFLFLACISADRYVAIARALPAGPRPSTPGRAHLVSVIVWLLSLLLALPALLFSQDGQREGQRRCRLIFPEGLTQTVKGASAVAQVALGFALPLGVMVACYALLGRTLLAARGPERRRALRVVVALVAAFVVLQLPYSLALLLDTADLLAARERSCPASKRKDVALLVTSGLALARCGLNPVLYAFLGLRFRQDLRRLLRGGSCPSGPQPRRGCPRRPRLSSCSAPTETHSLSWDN

[3] = target: T3, CCR4 (human, UniProt P51679 1-360)
T3 sequence (looked up): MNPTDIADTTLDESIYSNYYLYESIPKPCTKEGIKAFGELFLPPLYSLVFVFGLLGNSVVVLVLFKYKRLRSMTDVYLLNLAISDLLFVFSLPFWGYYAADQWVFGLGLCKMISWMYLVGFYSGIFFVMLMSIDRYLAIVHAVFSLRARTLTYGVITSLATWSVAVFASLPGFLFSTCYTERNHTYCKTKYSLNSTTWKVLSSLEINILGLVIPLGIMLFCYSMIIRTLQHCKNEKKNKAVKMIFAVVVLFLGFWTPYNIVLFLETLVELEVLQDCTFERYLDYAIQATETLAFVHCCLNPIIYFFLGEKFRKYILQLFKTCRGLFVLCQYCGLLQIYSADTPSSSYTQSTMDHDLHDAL

[4] = target: hCCR5 (human, UniProt P51681 1-352)
[5] = target: T4, chemokine receptor CCR7 (human, UniProt P32248 25-378)
T4 sequence (looked up): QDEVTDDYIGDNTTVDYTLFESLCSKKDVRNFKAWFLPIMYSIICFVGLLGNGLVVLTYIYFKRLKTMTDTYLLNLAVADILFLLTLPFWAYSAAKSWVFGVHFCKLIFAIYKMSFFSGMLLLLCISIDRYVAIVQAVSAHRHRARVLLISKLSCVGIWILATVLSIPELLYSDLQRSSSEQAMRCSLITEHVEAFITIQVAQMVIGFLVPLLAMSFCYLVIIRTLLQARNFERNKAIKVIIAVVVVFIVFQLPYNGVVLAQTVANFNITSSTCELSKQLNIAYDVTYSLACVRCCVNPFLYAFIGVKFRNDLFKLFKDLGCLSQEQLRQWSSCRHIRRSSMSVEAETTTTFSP

hCCR5, sequence (P51681 whole entry): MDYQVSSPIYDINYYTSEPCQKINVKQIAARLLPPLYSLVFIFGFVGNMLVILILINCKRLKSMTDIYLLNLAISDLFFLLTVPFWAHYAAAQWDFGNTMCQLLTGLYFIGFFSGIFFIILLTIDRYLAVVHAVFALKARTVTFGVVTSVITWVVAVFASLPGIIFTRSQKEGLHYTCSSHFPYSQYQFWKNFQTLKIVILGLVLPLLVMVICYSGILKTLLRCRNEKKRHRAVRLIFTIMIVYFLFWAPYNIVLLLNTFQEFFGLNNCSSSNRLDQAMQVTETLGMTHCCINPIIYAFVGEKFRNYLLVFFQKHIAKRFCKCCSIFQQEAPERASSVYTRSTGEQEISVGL

- EC50, agonist activity, Aequorin assay [1]: 15.7 nM
B1: biotinITAC (CXCL11), ITAC derivatised with Biotin at the ε-amino side chain functionality of an additional Lysine inserted at the C-terminus after a PEG spacer (ligand)
chain: FPMFKRGRCLCIGPGVKAVKVADIEKASIMYPSNNCDKIEVIITLKENKGQRCLNPKSKQARLIIKKVERKNFX
modifications: X (position 74) is PEG-K(Biotin): PEG spacer between the protein's C-terminus and an additional biotinylated lysine

- EC50, agonist activity, Aequorin assay [2]: 49.4 nM
B2: biotinCTAC (CCL27), CTAC derivatised at the ε-amino side chain functionality of Lys(87) with PEG-Biotin (ligand)
chain: FLLPPSTACCTQLYRKPLSDKLLRKVIQVELQEADGDCHLQAFVLHLAQRSICIHPQNPSLSQWFEHQERKLHGTLPKLNFGMLRKK([PEG-Biotin])G
modifications: ends and bridges not checked

- EC50, agonist activity, Aequorin assay [3]: 4.5 nM
B3: biotinMDC (CCL22), MDC derivatised at the ε-amino side chain functionality of Lys(66) with PEG-Biotin (ligand)
chain: GPYGANMEDSVCCRDYVRYRLPLRVVKHFYWTSDSCPRPGVVLLTFRDKEICADPRVPWVKMILNK([PEG-Biotin])LSQ-NH2
modifications: ends and bridges not checked

- EC50, agonist activity, Aequorin assay [3]: 3.1 nM
B4: biotinTARC (CCL17), TARC derivatised at the ε-amino side chain functionality of Lys(72) with PEG-Biotin (ligand)
chain: ARGTNVGRECCLEYFKGAIPLRKLKTWYQTSEDCSRDAIVFVTVQGRAICSDPNNKRVKNAVKYLQSLERSK([PEG-Biotin])-NH2
modifications: ends and bridges not checked; also: TFA salt

- EC50, agonist activity, Aequorin assay [4]: 0.5 nM
B5: biotinRANTES (CCL5), RANTES derivatised at the ε-amino side chain functionality of Lys(67) with Biotin (ligand)
chain: SPYSSDTTPCCFAYIARPLPRAHIKEYFYTSGKCSNPAVVFVTRKNRQVCANPEKKWVREYINSLEK(Biotin)S
modifications: ends and bridges not checked

- EC50, agonist activity, Aequorin assay [5]: 11 nM
B6: biotinMIP-3β (CCL19), MIP-3β derivatised at the ε-amino side chain functionality of Lys(78) with Biotin (ligand)
chain: GTNDAEDCCLSVTQKPIPGYIVRNFHYLLIKDGCRVPAVVFTTLRGRQLCAPPDQPWVERIIQRLQRTSAKMKRRSSX
modifications: additional Lys(78) = K(Biotin); assembled on Rink Amide resin (C-terminal amide)
